Experimental findings from patent US20240166738A1 (priority 2021, published 2024) are described below.

The assay deals with GST-TMEM106B (truncated, comprising amino acids 122-210 of SEQ ID NO:1) (Homo sapiens, UniProt Q9NUM4). Description: Pre-mix epitope binning of anti-TMEM106B antibodies (Carterra / Lake Pharma). The class given is binding. The following applies: for epitope bin: competition for binding to truncated GST-TMEM106B (amino acids 122-210); for Binding Community/Bin: epitope bin number, pre-mix binning on truncated GST-TMEM106B. Further details: key to epitope bin: Bin 1: competes for binding to the same or overlapping TMEM106B region as the TM1, TM17, TM22, TM26, TM79, and/or TM82 antibodies; Bin 2: competes for binding to the same or overlapping TMEM106B region as the TM3, TM9, TM10, TM11, TM12, TM13, TM18, TM19, TM21, TM24, TM25, TM32, TM35, TM37, TM42, TM45, TM48, TM54, TM59, TM60, TM61, and/or TM76 antibodies; Bin 3: competes for binding to the same or overlapping TMEM106B region as the TM7, TM15, TM83, and/or TM84 antibodies; Bin 4: competes for binding to the same or overlapping TMEM106B region as the TMS, TM28, TM29, TM30, TM63, TM64, TM72, TM78, TM80, TM86, and/or TM88 antibodies; Bin 5: does not bind to a truncated TMEM106B comprising amino acids 122-210 of SEQ ID NO:1.
Chain of GST-TMEM106B (truncated, comprising amino acids 122-210 of SEQ ID NO:1) (Q9NUM4 122-210): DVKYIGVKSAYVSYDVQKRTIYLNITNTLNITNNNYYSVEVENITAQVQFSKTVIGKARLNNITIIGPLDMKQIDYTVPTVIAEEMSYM

B1: TM-88: anti-TMEM106B monoclonal antibody; VH SEQ ID NO: 493, VL SEQ ID NO: 528 (antibody, V domains shown)
VH: EAQLQQSGPVLVKPGASVKMSCKTSGYTFTDYYINWVKQSHGKSLEWIGVINPYSGATYYTQKFKGKATLTVDKSSSTAYMELNSQTSEDSAVYYCARGGYDYGHWYFDVWGTGTTVTVSS
VL: ETTVTQSPASLSMAIGEKVTIRCITSSDIDDHMNWYRQKPGEPPEFLISEGNALRPGVPSRFSSSGYGTDFIFTIENILSEDVADYYCLQSDNLPLTFGAGTKLELK
modifications: Variable Heavy Chain -- TM-88; Variable Light Chain -- TM-88
B1: the epitope bin result is reported as “Bin 4” and the “Binding Community/Bin” value came to 4.

B2: TM-30: anti-TMEM106B monoclonal antibody; CDR-H1-3 SEQ ID NO: 21, 61, 104; CDR-L1-3 SEQ ID NO: 144, 160, 208 (antibody, V domains shown)
VH: QVQLQQSGPELVKPGASVKLSCKASDNTFTNYDVNWVRQRPGQGLEWIGWIYPRDGTTIYNEKFKGRATLTVDTSSSTAYMELHSLTSEDSAVFFCARTLPQAMDYWGQGTSVTVSS
VL: DVLMTQSPLSLPVSLGDQVSISCRSSQTIVHRNGNTYLEWYLQKPGQSPKLLIYKVSNRFSGVPDRFSGSGSGTDFTLKISRVEAEDLGVYYCFQGSHLPWTFGGGTKLEIK
Consider B2, for which the epitope bin result is given as “Bin 4” and the “Binding Community/Bin” value was determined as 4.

B3: TM-29: anti-TMEM106B monoclonal antibody; CDR-H1-3 SEQ ID NO: 20, 60, 103; CDR-L1-3 SEQ ID NO: 143, 168, 207 (antibody, V domains shown)
VH: QVQLRQSGAELVRPGASVKLSCKASGYTFTDYYINWVKQRPGQGLEWIARIYPGSGYTYYNEKFKGKATLTAEGSSNTAYMQLSSLTSEDSAVYFCANHYTNPFAYWGQGTLVTVSA
VL: DIVMTQAAFSNPVTLGTSASISCRSSKSLLHYNGITYLYWYLQKPGQSPQLLIYQMSNLASGVPDRFSSSGSGTDFTLRISRVEAEDVGVYYCAQNLELPYTFGGGTKLEIK
For the molecule B3, the epitope bin entry was “Bin 4” and the “Binding Community/Bin” value is 4.

B4: TM-5: anti-TMEM106B monoclonal antibody; CDR-H1-3 SEQ ID NO: 6, 39, 82; CDR-L1-3 SEQ ID NO: 124, 164, 188 (antibody, V domains shown)
VH: QVQLQQSGTELARPGASVKVSCKASGYIFTTYGITWVKQRGGQGLEWIGEIYPRSDNTYYNEKFKDKATLTADKSSSTAYMELRSLTSEDSAVYFCARSKGSGTGDYWGQGTTVTVSS
VL: DIQMTQSPASLSASVGETVTITCRASENIYIYLAWYQQKQGKTPQLLVYNGKMLAENVPSRFSGSGSGTQFSLKINSLQPEDFGSYYCQHHYGSPPAFGAGTKLELK
B4: the epitope bin entry is on record as “Bin 4” and the “Binding Community/Bin” value was 4.

B5: TM-63: anti-TMEM106B monoclonal antibody; VH SEQ ID NO: 469, VL SEQ ID NO: 505 (antibody, V domains shown)
VH: QVQLQQPGAELVKFGASVKLSCKASGYTFTSFWMHWVKQRPGQGLEWIGNIDPSDSETHYSQKFKDKATLTVDRSSNTAYIQLSSLTSEDSAVYYCARSSNWDNFDYWGQGTTVTVSS
VL: DIVMTQASPSVSVTPGESVSISCRSSQSLLHVNGNTYLYWFLQRPGRSPRLLIYRMSNLASGVPDRFSGSGSGTAFTLRISRVEAEDVGVYYCMQHLQYPFSFGSGTKLEMK
modifications: Variable Heavy Chain -- TM-63; Variable Light Chain -- TM-63
As to B5, the epitope bin entry is “Bin 4” and the “Binding Community/Bin” value stood at 4.

B6: TM-78: anti-TMEM106B monoclonal antibody; VH SEQ ID NO: 483, VL SEQ ID NO: 518 (antibody, V domains shown)
VH: QVQLQQPGAELVKPGASVKLSCKASGYTFTNHWMHWVRQRPGQGLEWIGNIDPSDSDTHYNHKFKDKATLIVDKSSSTAYLQLSSLTSEDSAVFYCARSRGGYYDYGEAMDYWGQGTSVTVSS
VL: DIVMTQATPSIPVTPGESVSISCRSSKSLLHVNGNTYLFWFLQRPGQSPQLLIYRMSNLASGVPDRFSGSGSGTAFTLRISRVEAEDVGVYYCMQHLEYPFTFGSGTKLEIK
modifications: Variable Heavy Chain -- TM-78; Variable Light Chain -- TM-78
In the case of B6, the epitope bin result was “Bin 4” and the “Binding Community/Bin” value was 4.

B7: TM-64: anti-TMEM106B monoclonal antibody; VH SEQ ID NO: 470, VL SEQ ID NO: 506 (antibody, V domains shown)
VH: QVQLQQPGAELVKPGASVKLSCKASGYTFTSYWMHWVKQRPGHGLEWIGNIDPSDSDTHYNQNFRGKATLTVDKFSTTAYMHLSSLTSEDSAVYYCARSRGGTYDYGEAMDYWGQGTSVTVSS
VL: DIVMTQAAPSVPVTPGESVSISCRSSKSLLHTNGNTYLFWFLQRPGRSPQLLIYRMSNLASGVPDRFSGSGSGTAFTLRISRVEAEDVGVYYCMQHLEYPFTFGSGTKLEIK
modifications: Variable Heavy Chain -- TM-64; Variable Light Chain -- TM-64
For the molecule B7, the epitope bin entry is on record as “Bin 4” and the “Binding Community/Bin” value was 4.

B8: TM-80: anti-TMEM106B monoclonal antibody; VH SEQ ID NO: 485, VL SEQ ID NO: 520 (antibody, V domains shown)
VH: QVQLQQPGAELVKPGASVKLSCKASGYTFTTFWMHWVKQRPGQGLEWIGNIDPSDSETHYNQEFKDKATLTVDRSSNTAYMQLSSLTSEDSAVYYCARSSNWDNFDYWGQGTAVTVSS
VL: DIVMTQAAPSVPVTPGESVSISCRSSQSLLHVNGHTYLYWFLQRPGQSPQLLIYRMSNLASGVPDRFSGSGSGTVFTLRISRVETEDVGIYYCMQHLQYPFTFGSGTKLEIK
modifications: Variable Heavy Chain -- TM-80; Variable Light Chain -- TM-80
As to B8, the epitope bin entry is on record as “Bin 4” and the “Binding Community/Bin” value is 4.

B9: TM-28: anti-TMEM106B monoclonal antibody; CDR-H1-3 SEQ ID NO: 8, 59, 102; CDR-L1-3 SEQ ID NO: 142, 166, 190 (antibody, V domains shown)
VH: EVQLQQSGPVLVKPGPSVKISCMASVFTFNDYYIHWVKQSHGKSLEWIGLVYPYNGGTNYNQNFKGKATLTVDTSSRTAYMELNSLTSEDSAVYYCARSYFSNPIGYWGQGTLVTVSE
VL: DIVMTQSPSSLSVSVGEKVTVSCKSSQSLLNSGNQKNYLAWYQQKPGQPPKLLIYGASTRESGVPDRFTGSGSGTDFTLTISSVQAEDLAVYYCQNDHSYPLTFGAGTKLELK
With B9, the epitope bin result is recorded as “Bin 4” and the “Binding Community/Bin” value is recorded as 4.

B10: TM-72: anti-TMEM106B monoclonal antibody; VH SEQ ID NO: 477, VL SEQ ID NO: 512 (antibody, V domains shown)
VH: QVQLQQPGAELVKPGTSVKLSCKASGSTFTNYWMHWVMQRPGQGLEWIGNIDPSDSDTHYNQKFKDRAKLTVDKSSSTAYMQLSGLTSEDSAVYYCARSRGGYYDYGEAMDYWGQGTSVTVSS
VL: DIVMTQAAPSVPVTPGESVSISCRSSKSLLHTNGNTYLFWFIQRPGQSPHLLIYRKSNLASGVPDRFSGSGSGTAFTLRISRVEAEDVGVYYCMQHLEYPFTFGSGTKLEIK
modifications: Variable Heavy Chain -- TM-72; Variable Light Chain -- TM-71, TM-72
With B10, the epitope bin result is on record as “Bin 4” and the “Binding Community/Bin” value is given as 4.
